{
  "source": "the RNAGym collection of RNA variant scans (doi:10.1093/molbev/msab373)",
  "parents": {"B1": {"name": "Azoarcus group I ribozyme (parent)", "chain": "GUGCCUUGCGCCGGGAAACCACGCAAGGGAUGGUGUCAAAUUCGGCGAAACCUAAGCGCCCGCCCGGGCGUAUGGCAACGCCGAGCCAAGCUUCGGCGCCUGCGCCGAUGAAGGUGUAGAGACUAGACGGCACCCACCUAAGGCAAACGCUAUGGUGAAGGCAUAGUCCAGGGAGUGGCGAAAGUCACACAAACCGG"}},
  "data": [
    {"variants_of": "B1", "test": "reverse-splicing fitness (ratio to wild type); higher = more active; in vitro selection; Mg2+ level not given", "method_in_brief": "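An in vitro group I ribozyme library with randomized positions was T7-transcribed and gel-purified. In triplicate, 10 pmol RNA in EPPS pH 7.5 was reacted with 50 pmoles of a 30-nt RNA substrate for 1 h at 37 °C across several added MgCl2 levels (1–48 mM), then stopped with EDTA. Products were reverse transcribed from a substrate-complementary primer, PCR-amplified and sequenced (HiSeq 4000). Fitness is a variant's read proportion after selection over that before, normalised to wild type.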", "values": [
      {"variant": "GUGCCUUGCGCCGGGAAACCACGCAAGGGAUGGUGUCAAAUUCGGCGAAACCUAAGCGCCCGCCCGGGCGUAUGGCAACGCUGAGCCAAGCUUCGGCGCCUGCGCCGAUGUAGGUGUAGUGACUAGACGGCACCCACCUAAGGCCAACGGUAUGGUGAAGGCAUAGUCCAGGGAGAGGCGAAAGUCACACAAACCGG", "note": "[C82U A111U A120U A145C C150G U176A]", "reverse-splicing fitness": 0.00287},
      {"variant": "GUGCCUUGCGCCGGGAAACCACGCAAGGGAUGGUGUCAAAUUCGGCGAAACCUAAGCGCCCGCCCGGGCGUAUGGCAACGCUGAGCCAAGCUUCGGCGCCUGCGCCGAUGUAGGUGUAGUGACUAGACGGCACCCACCUAAGGCCAACGGUAUGGUGAAGGCAUAGUCCAGGGAGCGGCGAAAGUCACACAAACCGG", "note": "[C82U A111U A120U A145C C150G U176C]", "reverse-splicing fitness": 0.00408},
      {"variant": "GUGCCUUGCGCCGGGAAACCACGCAAGGGAUGGUGUCAAAUUCGGCGAAACCUAAGCGCCCGCCCGGGCGUAUGGCAACGCUGAGCCAAGCUUCGGCGCCUGCGCCGAUGUAGGUGUAGUGACUAGACGGCACCCACCUAAGGCCAACGGUAUGGUGAAGGCAUAGUCCAGGGAGGGGCGAAAGUCACACAAACCGG", "note": "[C82U A111U A120U A145C C150G U176G]", "reverse-splicing fitness": 0.00213},
      {"variant": "GUGCCUUGCGCCGGGAAACCACGCAAGGGAUGGUGUCAAAUUCGGCGAAACCUAAGCGCCCGCCCGGGCGUAUGGCAACGCUGAGCCAAGCUUCGGCGCCUGCGCCGAUGUAGGUGUAGUGACUAGACGGCACCCACCUAAGGCCAACGUUAUGGUGAAGGCAUAGUCAAGGGAGCGGCGAAAGUCACACAAACCGG", "note": "[C82U A111U A120U A145C C150U C169A U176C]", "reverse-splicing fitness": 0.00253},
      {"variant": "GUGCCUUGCGCCGGGAAACCACGCAAGGGAUGGUGUCAAAUUCGGCGAAACCUAAGCGCCCGCCCGGGCGUAUGGCAACGCUGAGCCAAGCUUCGGCGCCUGCGCCGAUGUAGGUGUAGUGACUAGACGGCACCCACCUAAGGCCAACGUUAUGGUGAAGGCAUAGUCAAGGGAGAGGCGAAAGUCACACAAACCGG", "note": "[C82U A111U A120U A145C C150U C169A U176A]", "reverse-splicing fitness": 0.00217},
      {"variant": "GUGCCUUGCGCCGGGAAACCACGCAAGGGAUGGUGUCAAAUUCGGCGAAACCUAAGCGCCCGCCCGGGCGUAUGGCAACGCUGAGCCAAGCUUCGGCGCCUGCGCCGAUGUAGGUGUAGUGACUAGACGGCACCCACCUAAGGCCAACGUUAUGGUGAAGGCAUAGUCAAGGGAGGGGCGAAAGUCACACAAACCGG", "note": "[C82U A111U A120U A145C C150U C169A U176G]", "reverse-splicing fitness": 0.00178},
      {"variant": "GUGCCUUGCGCCGGGAAACCACGCAAGGGAUGGUGUCAAAUUCGGCGAAACCUAAGCGCCCGCCCGGGCGUAUGGCAACGCUGAGCCAAGCUUCGGCGCCUGCGCCGAUGUAGGUGUAGUGACUAGACGGCACCCACCUAAGGCCAACGAUAUGGUGAAGGCAUAGUCUAGGGAGCGGCGAAAGUCACACAAACCGG", "note": "[C82U A111U A120U A145C C150A C169U U176C]", "reverse-splicing fitness": 0.00269},
      {"variant": "GUGCCUUGCGCCGGGAAACCACGCAAGGGAUGGUGUCAAAUUCGGCGAAACCUAAGCGCCCGCCCGGGCGUAUGGCAACGCUGAGCCAAGCUUCGGCGCCUGCGCCGAUGUAGGUGUAGUGACUAGACGGCACCCACCUAAGGCCAACGAUAUGGUGAAGGCAUAGUCUAGGGAGGGGCGAAAGUCACACAAACCGG", "note": "[C82U A111U A120U A145C C150A C169U U176G]", "reverse-splicing fitness": 0.00213},
      {"variant": "GUGCCUUGCGCCGGGAAACCACGCAAGGGAUGGUGUCAAAUUCGGCGAAACCUAAGCGCCCGCCCGGGCGUAUGGCAACGCUGAGCCAAGCUUCGGCGCCUGCGCCGAUGUAGGUGUAGUGACUAGACGGCACCCACCUAAGGCCAACGAUAUGGUGAAGGCAUAGUCUAGGGAGAGGCGAAAGUCACACAAACCGG", "note": "[C82U A111U A120U A145C C150A C169U U176A]", "reverse-splicing fitness": 0.0025},
      {"variant": "GUGCCUUGCGCCGGGAAACCACGCAAGGGAUGGUGUCAAAUUCGGCGAAACCUAAGCGCCCGCCCGGGCGUAUGGCAACGCUGAGCCAAGCUUCGGCGCCUGCGCCGAUGUAGGUGUAGUGACUAGACGGCACCCACCUAAGGCCAACGGUAUGGUGAAGGCAUAGUCGAGGGAGCGGCGAAAGUCACACAAACCGG", "note": "[C82U A111U A120U A145C C150G C169G U176C]", "reverse-splicing fitness": 0.00216},
      {"variant": "GUGCCUUGCGCCGGGAAACCACGCAAGGGAUGGUGUCAAAUUCGGCGAAACCUAAGCGCCCGCCCGGGCGUAUGGCAACGCUGAGCCAAGCUUCGGCGCCUGCGCCGAUGUAGGUGUAGUGACUAGACGGCACCCACCUAAGGCCAACGGUAUGGUGAAGGCAUAGUCGAGGGAGGGGCGAAAGUCACACAAACCGG", "note": "[C82U A111U A120U A145C C150G C169G U176G]", "reverse-splicing fitness": 0.00175},
      {"variant": "GUGCCUUGCGCCGGGAAACCACGCAAGGGAUGGUGUCAAAUUCGGCGAAACCUAAGCGCCCGCCCGGGCGUAUGGCAACGCUGAGCCAAGCUUCGGCGCCUGCGCCGAUGUAGGUGUAGUGACUAGACGGCACCCACCUAAGGCCAACGGUAUGGUGAAGGCAUAGUCGAGGGAGAGGCGAAAGUCACACAAACCGG", "note": "[C82U A111U A120U A145C C150G C169G U176A]", "reverse-splicing fitness": 0.00245},
      {"variant": "GUGCCUUGCGCCGGGAAACCACGCAAGGGAUGGUGUCAAAUUCGGCGAAACCUAAGCGCCCGCCCGGGCGUAUGGCAACGCUGAGCCAAGCUUCGGCGCCUGCGCCGAUGUAGGUGUAGUGACUAGACGGCACCCACCUAAGGCCAACGGUAUGGUGAAGGCAUAGUCAAGGGAGUGGCGAAAGUCACACAAACCGG", "note": "[C82U A111U A120U A145C C150G C169A]", "reverse-splicing fitness": 0.00266},
      {"variant": "GUGCCUUGCGCCGGGAAACCACGCAAGGGAUGGUGUCAAAUUCGGCGAAACCUAAGCGCCCGCCCGGGCGUAUGGCAACGCUGAGCCAAGCUUCGGCGCCUGCGCCGAUGUAGGUGUAGUGACUAGACGGCACCCACCUAAGGCCAACGGUAUGGUGAAGGCAUAGUCGAGGGAGUGGCGAAAGUCACACAAACCGG", "note": "[C82U A111U A120U A145C C150G C169G]", "reverse-splicing fitness": 0.00307},
      {"variant": "GUGCCUUGCGCCGGGAAACCACGCAAGGGAUGGUGUCAAAUUCGGCGAAACCUAAGCGCCCGCCCGGGCGUAUGGCAACGCUGAGCCAAGCUUCGGCGCCUGCGCCGAUGUAGGUGUAGUGACUAGACGGCACCCACCUAAGGCCAACGGUAUGGUGAAGGCAUAGUCUAGGGAGUGGCGAAAGUCACACAAACCGG", "note": "[C82U A111U A120U A145C C150G C169U]", "reverse-splicing fitness": 0.00284}
    ]}
  ]
}
